Values of other authors in PMC10094977.

Legend:
[1] = target: Cav1.2 IQ domain IQ (UniProt Q13936); assay: isothermal titration calorimetry
[2] = target: Cav1.2 alpha1C IQ domain 1611-1644 (Homo sapiens) (UniProt Q13936); assay: isothermal titration calorimetry
Chain of Cav1.2 alpha1C IQ domain 1611-1644 (Homo sapiens) (Q13936 1611-1644): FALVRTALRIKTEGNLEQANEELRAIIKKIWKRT

Chain of Cav1.2 IQ domain IQ (Q13936 1665-1685): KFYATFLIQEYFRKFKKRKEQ

Substance	Kd [1]	Kd [2]
Ca2+/calmodulin C-lobe C-lobe (from UniProt P0DP23)	2 nM	
Calmodulin C-lobe (from UniProt P0DP23)		2 nM
